In paper PMC8147279:

Tests used:
[1] = target: β-sliding processivity clamp (Escherichia coli) (UniProt P0A988)
[2] = target: β-sliding processivity clamp (Escherichia coli) (UniProt P0A988); remark: listed apart in the source
[3] = target: β-sliding processivity clamp (Escherichia coli) (UniProt P0A988); remark: listed apart in the source
[4] = target: β-sliding processivity clamp (Escherichia coli) (UniProt P0A988); remark: listed apart in the source
[5] = target: β-sliding processivity clamp (Escherichia coli) (UniProt P0A988); remark: listed apart in the source
[6] = target: β-sliding processivity clamp (Escherichia coli) (UniProt P0A988); remark: listed apart in the source

Sequence of β-sliding processivity clamp (Escherichia coli) (P0A988 whole entry): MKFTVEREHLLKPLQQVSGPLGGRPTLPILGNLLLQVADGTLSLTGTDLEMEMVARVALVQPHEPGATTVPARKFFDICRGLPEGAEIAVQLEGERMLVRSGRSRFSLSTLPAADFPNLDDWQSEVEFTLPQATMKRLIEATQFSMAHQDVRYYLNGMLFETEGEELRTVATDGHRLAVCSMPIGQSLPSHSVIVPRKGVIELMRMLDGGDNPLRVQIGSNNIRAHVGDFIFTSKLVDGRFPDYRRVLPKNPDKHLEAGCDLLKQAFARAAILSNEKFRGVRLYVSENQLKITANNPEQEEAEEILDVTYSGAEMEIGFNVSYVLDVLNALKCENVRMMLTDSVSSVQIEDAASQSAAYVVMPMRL
Sequence of pol V Mut WT (UmuD’2C-RecA-ATP/ATPγS) (P04152 whole entry): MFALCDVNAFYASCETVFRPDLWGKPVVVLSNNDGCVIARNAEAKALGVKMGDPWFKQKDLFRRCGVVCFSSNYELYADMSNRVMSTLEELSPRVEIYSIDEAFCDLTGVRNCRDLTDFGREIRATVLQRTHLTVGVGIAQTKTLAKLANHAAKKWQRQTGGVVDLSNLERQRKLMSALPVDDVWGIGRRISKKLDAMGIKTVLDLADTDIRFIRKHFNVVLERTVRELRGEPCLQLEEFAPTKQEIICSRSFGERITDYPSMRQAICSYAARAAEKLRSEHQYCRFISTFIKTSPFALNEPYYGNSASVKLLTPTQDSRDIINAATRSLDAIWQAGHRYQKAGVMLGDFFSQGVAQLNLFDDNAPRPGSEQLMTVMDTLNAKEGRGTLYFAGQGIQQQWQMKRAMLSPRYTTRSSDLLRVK
Sequence of pol V Mut WT (UmuD’2C-RecA-ATP/ATPγS) (P0AG11 25-139): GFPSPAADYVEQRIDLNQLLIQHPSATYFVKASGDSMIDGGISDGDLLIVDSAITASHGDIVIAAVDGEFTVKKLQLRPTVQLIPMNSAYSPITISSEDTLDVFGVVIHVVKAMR
Sequence of pol V Mut WT (UmuD’2C-RecA-ATP/ATPγS) (P0A7G6 whole entry): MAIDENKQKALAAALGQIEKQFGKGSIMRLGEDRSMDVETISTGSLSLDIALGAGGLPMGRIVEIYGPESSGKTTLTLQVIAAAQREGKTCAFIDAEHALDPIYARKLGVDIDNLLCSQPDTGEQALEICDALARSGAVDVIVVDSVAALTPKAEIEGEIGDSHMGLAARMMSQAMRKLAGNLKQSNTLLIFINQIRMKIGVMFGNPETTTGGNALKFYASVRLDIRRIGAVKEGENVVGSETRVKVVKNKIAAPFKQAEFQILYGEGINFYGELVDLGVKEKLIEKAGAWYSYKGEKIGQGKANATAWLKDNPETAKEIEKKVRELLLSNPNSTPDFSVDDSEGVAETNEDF

Substance: pol V Mut WT (UmuD’2C-RecA-ATP/ATPγS) (from UniProt P04152 1-422; P0AG11 25-139; P0A7G6 1-353) (complex)
- fold increase of DNA elongation rate by β on undamaged DNA, pol V Mut WT-ATP [1]: 5 fold
- translesion synthesis past an abasic site 3 nt from the primer end, % PE, pol V Mut WT with dATP, ATPγS and β/γ, up to 120 min [2]: 35%
- percent of primer extended (% PE) on undamaged circular p/t DNA by pol V Mut WT-ATP with β-clamp and γ-complex, 15-120 min (about 1% without β) [3]: 5%
- percent of primer extended (% PE) on undamaged circular p/t DNA by pol V Mut WT-ATPγS with β-clamp and γ-complex, 15-120 min (~5% at 60 min without β) [4]: > 40%

Substance: pol V Mut E38K/∆C17 (UmuD’2C-RecA E38K/∆C17-ATP/ATPγS) (from UniProt P04152 1-422; P0AG11 25-139; P0A7G6 1-353) (complex)
- fold increase of DNA elongation rate by β on undamaged DNA, pol V Mut E38K/ΔC17-ATP [1]: 7 fold
- percent of primer extended (% PE) on undamaged circular p/t DNA by pol V Mut E38K/ΔC17-ATPγS with β-clamp and γ-complex (γ-complex stays on β with ATPγS) [5]: 42%
- percent of primer extended (% PE) on undamaged circular p/t DNA by pol V Mut E38K/ΔC17-ATP with β-clamp and γ-complex, 15-120 min (10% at 120 min without β) [6]: 77%
